Test results as given in patent publication US20250388652A1.

Assays:
[1] = target: F protein mutant RSV-DS-Cav1-B with a DS-Cav1 structure before fusion (respiratory syncytial virus subtype B, strain 18537) (UniProt P13843)
[2] = target: F protein mutant RSV-DS-Cav1-B with a DS-Cav1 structure before fusion (respiratory syncytial virus subtype B, strain 18537) (UniProt P13843); remark: listed apart in the source

Sequence of anti-RSV monoclonal antibody Clesrovimab (RB1) (VH): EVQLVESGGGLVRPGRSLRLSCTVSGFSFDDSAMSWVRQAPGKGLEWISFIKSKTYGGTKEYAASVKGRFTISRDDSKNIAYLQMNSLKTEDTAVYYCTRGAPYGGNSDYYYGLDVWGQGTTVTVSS
Sequence of anti-RSV monoclonal antibody Clesrovimab (RB1) (VL): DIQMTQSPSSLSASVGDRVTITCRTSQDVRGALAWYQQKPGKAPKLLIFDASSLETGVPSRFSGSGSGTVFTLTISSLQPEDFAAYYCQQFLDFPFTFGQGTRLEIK
Sequence of anti-RSV monoclonal antibody Nirsevimab (MEDI8897) (VH): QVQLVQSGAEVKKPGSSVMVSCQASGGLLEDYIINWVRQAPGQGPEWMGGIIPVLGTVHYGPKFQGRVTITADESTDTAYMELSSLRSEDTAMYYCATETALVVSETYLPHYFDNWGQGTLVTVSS
Sequence of anti-RSV monoclonal antibody Nirsevimab (MEDI8897) (VL): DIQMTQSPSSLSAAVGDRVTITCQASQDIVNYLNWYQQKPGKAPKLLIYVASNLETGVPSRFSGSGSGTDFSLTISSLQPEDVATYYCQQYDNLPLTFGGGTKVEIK

Substance	Kd [1] [nM]	koff [1] [s⁻¹]	kon [1] [M⁻¹ s⁻¹]	EC50 (read off the curve) [2] [nM]
anti-RSV monoclonal antibody Clesrovimab (RB1)	0.00895	8.21e-05	9.17e+06	–
anti-RSV monoclonal antibody Nirsevimab (MEDI8897)	3.08	0.000333	108000	10
